Source: publication PMC12340436

How the values were obtained:
Assay in all cases: EMSA
[1] = test system: RhsP2tox WT (Pseudomonas aeruginosa PA14)
[2] = target: RhsP2tox K1564E K1564E (Pseudomonas aeruginosa PA14) (UniProt A0A0H2Z8A2)
[3] = target: RhsP2tox K1567E K1567E (Pseudomonas aeruginosa PA14) (UniProt A0A0H2Z8A2)
[4] = target: RhsP2tox K1574E K1574E (Pseudomonas aeruginosa PA14) (UniProt A0A0H2Z8A2)
[5] = target: RhsP2tox K1579E K1579E (Pseudomonas aeruginosa PA14) (UniProt A0A0H2Z8A2)
[6] = target: RhsP2tox K1580E K1580E (Pseudomonas aeruginosa PA14) (UniProt A0A0H2Z8A2)
[7] = target: RhsP2tox R1563E R1563E (Pseudomonas aeruginosa PA14) (UniProt A0A0H2Z8A2)
[8] = target: RhsP2tox WT (Pseudomonas aeruginosa PA14) (UniProt A0A0H2Z8A2)

Substance CsrB sRNA has a Kd [1] of 0.67 µM.
In the case of “GGGACCGGCGCAGAGGAGACAAUGCCGGAUUUAAGACGCGGAUGCACUGCUGUGUGUACUGUAGAGUCUGGCGGAUGUCGACAGACUCUAUUUUUUU [McaS sRNA]”, the binding [2] is reported as “binds more weakly”, the binding [3] is reported as “binds more weakly” and the binding [4] is reported as “no binding”. The binding [5] was “binds more weakly”, the binding [6] was “binds more weakly” and the binding [7] was “binds more weakly”. It also gave a Kd [8] of 6.9 µM.
McaS sRNA was tested, and the Kd [1] was 6.9 µM.
For synthetic 50-nt RNA, the Kd [1] was 2.2 µM.
